This note sets out measurements from a protein production outcome set (Wang et al. 2014).

The nature of the data set: label from the status in PepcDB records.
With “MQRLKTVFILFIAFLFFSCSGKTNEQAFFKELSKIDLQIAEGYQAKALKSLKRLQKKAVNSTNYVSIVKRQLKLNSIPDALISLQTGIKKIPDSPELSALLTSILIDSGKPAEALPYCEKLKDTPYASLGAEASILSDIALNSFNSDFSLLKAAYDKTENQVFLKNAAIVLAAKGRLREASNLRYNIPNDVAPEHPFFWSCIVYDLGVFDSIFGDLYFSLVYADKDGGEGKTAENARLHLMLAADAAYGQGDTERARAFWQAAADRSPEASPIVFYDLALTAPDEKERVDLLIECIDLYPDFYPVIARYVREDIALRELNSQDELSAYLESKGFYSIKMEETYFTSPKMTYKPEDLLARAMKNPNFDQRFILEEFRYNQITDKTYASKARGKADMWKILEKYGKESIIREYAKWYFAQSGDFNACLSVSEIGKRYEDSFYAGINSALSGDFENAVSSFAASAQVSAYAYASTVNSAYMYYMSGKTSEAVDTYSLAASMTQDKKRQSMLHYEIASIFYERKAYDRAISVLGYALELNPKNYQAASLLKKLKEFN”, the protein production result was “failed”.
On to “MISSATKTLQTNNKTIYVAILSTLTFFLFLDYIPGLQAWSAWVTPPVALFLGLIFALTCGQAHPKFNKKTSKYLLQYSVVGLGFGMNLQSALASGKEGMEFTVISVVGTLLIGWFIGRKIFKIDRNTSYLISSGTAICGGSAIAAIGPVLRAKDSEMSVALGTIFILNAIALFIFPAIGHALDMTEHQFGTWAAIAIHDTSSVVGAGAAYGEEALKVATTIKLTRALWIIPMAFATSFIFKSKGQKISIPWFIFFFILAMIANTYLLNGVPQLGAAINGIARKTLTITMFFIGASLSLDVLRSVGVKPLIQGVLLWVVISLSTLAYIYFV”, for which the protein production result is on record as “failed”.
The entry for “MLDLKSYREKELASYDLDVELFNEFNFSVYNVMPLRKAFLISTDKGEKILKKIDYTIEEFKFVLAAVNYIKNENEFNRIIDFNKTQSGEYYCIKNGDLYCVMDMIEGKECEFSNPVDLSISSFGLGQLHSASEGFRYSKIASKNICGKMIKGFKRKKEEVNFLKKMVNLYESLNEFDEIFIKNVDYYLEQIDKSIDIMNKSQYYKLCSEEDKIVLCHHDLAHHNIIIKDEEAYFIDFDYAIIDLKVHDLSNIISKAAKVFNYSIDNSKIIISNYCKSNTLSKNEMEVLFGMLSFPEDFYEIVKSYYTKRKDWSNEEFINKMKRKMANEENRVEFLKNFKEDLKI” is “failed”.
The entry for “HMPSVIVVGGQWGDEGKGSIVAYLSLHDEPEIIARGGVGTNAGHSVVINGKKYAVRQIPTGFMQTKARLLIGAGVLVDPEVFFHELEQLKDFNVKDRVGIDYRCAIIEEKHKQLDRTNGYLHGKIGTTGSGCGPANADRVMRKAKQAKDVKELEPYLTDVAQEINDALDEGSLVLVEGTQGFGLSLYYGTYPYVTSKDVTASSVAADVGIGPTRVDEVIVVFKSFPTRVGAGPFPTEMPMEEADRLGLVEYGTVTGRRRRVGWFDFEMARYSARINGATMLAVTMLDKYDKEAFGVTDYDKLPRKAKEFIEEIEERVGVPVGLIKTGPELEHIIDRRDTI” is “not failed”; for “MADSRQAQGPGKSVLGIGQRIVTIIVEMVETRLRLAVVELEEEKANLFQLLLMVGLTMLFAAFGLMSLMVLVIWAIDPQYRLNAMIATTVVLLVLALIGGIWTLRKARQSTLLRHTRHELANDRQILEDDQS” it is “failed”; for “MAPACTTVHRRRAPLAAVLMLSLLPVLSPHADAAQVPWHSRTFKYVADNKDLKEVLRDLSASQSIATWISPEVTGTLSGKFETSPQKFLDDLAATYGFVWYYDGAVLRIWGANESKSATLSLGTASTKSLRDALARMRLDDPRFPVRYDETAHVAVVSGPPGYVDTVSAIAKQVEQGARQRDATEVQVFQLHYAQAADHTTRIGGQDVQIPGMASLLRSMYGARGAPVAAIPGPGANFGRVQPIGGGSSNTFGNAAQGQGGGASGILGLPSSWFGGASSSDRVPVSPPLPGSGTAATAGSPASVWPELSKGRRDESTPIDAGGGAELASDAPVIEADPRTNTILIRDRPERMQSYGTLIQQLDNRPKLLQIDATIIEIRDGAMQDLGVDWRFHSQHTDIQTGNGSGGQLGFNGALSGAATDGATTPAGGTLTAVLGDAGRYLMTRVSALETTNKAKIVSSPQVATLDNVEAVMDHKQQAFVRVSGYASADLYNLSAGVSLRVLPSVVPGSPNGQMRLDVRIEDGQLGSNTVDGIPVITSSEITTQAFVNEGQSLLIAGYAYDADETDLNAVPGLSKIPLLGNLFKHRQKSGSRMQRLFLLTPHVVSP” it is “failed”.
Consider “MASKMDTETHYSDVWVVIPAFNEAAVIGKVVTDVRSVFDHVVCVDDGSTDGTGDIARRSGAHLVRHPINLGQGAAIQTGIEYARKQPGAQVFATFDGDGQHRVKDVAAMVDRLGAGDVDVVIGTRFGRPVGKASASRPPLMKRIVLQTGARLSRRGRRLGLTDTNNGLRVFNKTVADGLNITMSGMSHATEFIMLIAENHWRVAEEPVEVLYTEYSKSKGQPLLNGVNIIFDGFLRGRMPR”, for which the protein production entry was “failed”.
Turning to “MADWTRAQSSGAVEEILDRENKRMADSLASKVTRLKSLALDIDRDTEDQNRYLDGMDSDFTSVTGLLTGSVKRFSTVARSGRDNRKLLCGMAVVLIVAFFILSYLLSRTRT”, the protein production result is reported as “failed”.
For the sequence “MDLFDTPLAPLQVLDDAEGGVRYWPQLLAPAVAQAAFAALRDGADWQRHQRTMYDRVVDVPRLLASYRLDAPLPPGLPLQLLLAAVQAQLPAPYNAVGLNLYRDGRDSVAMHHDKLHTLLAPHPIALLSLGTPRRMQLRAKQGATRAITLELAPGSLLAMSHASQLTHEHGIPKTTRALGERISVVFRVRPPARMAAGQHGPHWEALTQTDLEHHHHHH”, the protein production result is “not failed”.
Take “MSLKTGRSNIIAFIVPDQNPFFTEVLTEISHECQKHHLHVAVASSEENEDKQQDLIETFVSQNVSAIILVPVKSKFQMKREWLKIPIMTLDRELESTSLPSITVDNEEAAYIATKRVLESTCKEVGLLLANPNISTTIGRKNGYNKAISEFDLNVNPSLIHYSDQQLGTNAQIYSGYEATKTLLSKGIKGIVATNHLLLLGALQAIKESEKEIKKDVIIVGFDDSYWNEIYTPKLTVISQPVKEMGQVAAKMIYKLIKGKDVTSIKLSTKLIIRESCSFNEGHHHHHH”: the protein production result was “not failed”.
The entry for “MWEAIKDRETGRIRSNSFANRFKSRRILSLQLSNRKDFVSPHRGSVNSLQVDLTEGRYLLSGAADGSAAVFDVQRATDYEASGLIAKHKCIFTVDKQHENGHKYAISSAIWYPIDTGLFITGSFDHYLKVWDTNTAQAVVDFKMPGKVYRTAMSSMAMSHTLIAAGTEDVQVRLCDIASGAFSHTLSGHRDGVMSVEWSTSSEWVLYTGGCDGAIRFWDIRRAGCFRVLDQSQTQLGFRPPILKRTAVGSKLSSVAKSSLGGQNRLKTLQSKQTGSQSVKGSSSAKASVEKSRQKRIHPGMLSTLDRATAHYGAVTGLKATNDGMYLLSAGSDSRIRLWDIESGRNTLVNFETGRIQTNKGIQLDTSDDPALVFVPCMKTVKVAFGMWSGRTTLMLRGHYESVNTCCFNSNDQELYTSGSDRQILVWSPGGTVEDEMVQDEVAEDKDNWSD” is “failed”; for “MFGRCVRVKENMTYTEFVRTLSEAFSLKSTEINPIISYWMPGEMLVMIDTKRLPVYIDSQVGLNTFFMIRGRYPSLNLFVSFITTVKTLENNVSRTHGDDAESDRVSNVDENNEAVDEQDDVEDDKTDEDEEEGDNEDGDGYDDYQGDDGSMGGSTLDPTIDGSESNGEDYDYNKWNDVIVEEYGIGNVEENVILIPGEFSRLLAECTYTS” it is “failed”; for “MNDSTMKCIKLAAIVCIAIGLSACSEQKTTQEYILASKVYLQKLEYGAAIVELKNAVRQTPKDAEARYYLAKAYSEQGSYVNAEKELDKAEQFGLEMNLLLPDLVFIKSKLNKVEEVYALMENVESLNDEQYIVVLTYAGITALNNKELERAQDFIAQANTISETSLYSKMGAAYLLHAEDNFSKGIEIIDTVLGESPDFTEALLLKGHLLFSSEQFIQANGVYTKYRQLHPFANKVLFFEVNSLISAGEYEQADVKATELIKRFKNSPLAHQYKAQVEYQKKNYEDARSYAISAAQQGNEFIISKLIAGMSSYQLGDIEQAYGYLNQTEKYLPSSHPIKRILASIKIKLGYTTEGIVQLSALEGLTTSDAGLFQSSSIELIKAGDFENAIKLLDKASIIAPENASVAAQKGMLKLSQNDKTGIASLEHALNLDPNLKDVEFSLAIQYLDNGQEKKVRSIAKKWIASQDNQASGYLLLGIIHSNNNLSSKAEENYQKALSIEPENYTALFYLADIAEDADRILDAVDYYQKVVTILPEHKAAIQKLSRLQLKHNNTSNNVEFLSTLAAKHPKNITLALGLAQNLRLNNELKKAITLLESMSDWARSSQQYWAILGDNYLQAKSHTKAKECFKKVLALNPNNFVAHLRLIAISEVKRNYKQALTYTISSLERFEHNTRLLILKANFELLTGDLVSAKKTLRYLQEQKVSHHLINKFVGELALADKDYPSAIDNFHELYQKSPTALNVMLLARALSFNGQKAEAAQTIESYLSRMIKDHKVRLLLAELYMQFDEAKAIKHLEIINQSEQNNAVVLNNLAMLELKRARPEQALLYAEKAFELKSGIHQISDTYGAALVTVKNFDSAIIVLLNAINQGSEAETTYVNLTKAYLATGKTDKVKALLDSIKDRTFYSKVQAMR” it is “failed”.
For the sequence “MSMSSSSSICGDEDGDLLLDEEEEIDFYAILNVPKDATDDEIIKAYRKRCLMFHPDRFVDNDEKKDAERVFVKLRRAHEVLLDPKQRAIYDALGVQGLDTQGWEL”, the protein production entry was “not failed”.
The entry for “MASLVAYDDSDPESEADPARSGDAAGQMSDVSGISRPEVEFASSTGVTKEGAQHTGNSPYEDPGKQRLPLARLWRSDPGSCPSQRLQWPSKEPDSTFPTSEPPGPSLWMNRAPVGHVPLAAACFKPLKPAWDAFTPSHTHSKLESTAGNASSSQRKRGEACVLPYIPKRLRQLQVLNPEATGGRDVEPPGSPAGCAPAPLCVAPTVSEFIQPYLNSQYRETTVPKKVLFHLRGHRGPVNSIQWCPVFSKSHMLLSASMDKTFKVWNAVDSGHCLQTYSVHSEAVRAARWSPCGRRILSGGFDFALHLTDLETGTQVFSGHSDFRVTTLKFHPKDHNVFLCGGFSSEIKAWDMRTGKVVKGYKATIQQTLDILFLQEGSEFLSSTDASTRDSADRTIIAWDFRTAAKISNQIFHERYTCPSLALHPREPVFLAQTNGNYLALFSSVWPYRMSRRRRYEGHKVEGYAVGCECSPCGDLLVTGSADGRVLMFSFRTASRACTLQGHTQACLGTTYHPVLPSVLGTCSWGGDIKIWH” is “failed”; for “KVDPSDFSDVLIAHTVMKPFPDAPTALYQIKAKGYETVLMTNHSRDLIQSNVINLDHEFDMIITAEDVQTYKPNQKFFDYVNDQLGNDVEKHVHVAVDEVKDLKPAQDAGWNVIKIDRKSEDAS” it is “failed”.
On to “MGQVEVIDRRQSVFGDDIQLQKRSSSYEIISNGVFLMSTENGRSEREMVTLGAQHMKNAVHSVLIGGLGVGITADEAVHLNDHVQVHVVEIEPSVVEWQYRYLYPFSNQALEHERTAIIISDIQQWLRTNERTYDLICLDTDNGPDWMVHKQNASLYGKIGLELVRERVRVGGAVSFWSASASESFLHELETLFDRVYEHAVSLEHHHHHH”, for which the protein production result is given as “failed”.
